T1: human FcRH3 (BIACORE analyte) (human, UniProt Q96P31 18-573, limits assumed)
T1 construct: also called huFcRH3
T1 sequence (looked up): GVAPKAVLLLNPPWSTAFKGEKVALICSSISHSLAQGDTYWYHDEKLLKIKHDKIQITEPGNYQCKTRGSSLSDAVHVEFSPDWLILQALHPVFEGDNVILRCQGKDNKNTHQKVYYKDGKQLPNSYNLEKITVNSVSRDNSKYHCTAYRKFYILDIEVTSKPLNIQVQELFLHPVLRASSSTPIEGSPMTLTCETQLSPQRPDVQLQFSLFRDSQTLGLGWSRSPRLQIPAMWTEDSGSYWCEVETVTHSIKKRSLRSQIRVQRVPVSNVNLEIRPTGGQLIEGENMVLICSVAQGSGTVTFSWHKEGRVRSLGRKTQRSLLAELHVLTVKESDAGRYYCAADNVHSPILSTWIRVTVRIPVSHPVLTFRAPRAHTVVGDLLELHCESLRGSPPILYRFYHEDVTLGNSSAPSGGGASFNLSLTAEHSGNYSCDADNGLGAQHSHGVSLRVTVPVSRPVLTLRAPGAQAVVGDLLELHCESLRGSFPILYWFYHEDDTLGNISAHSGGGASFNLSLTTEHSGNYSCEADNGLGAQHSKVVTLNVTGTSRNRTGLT

T2: cynomolgus FcRH5 (full-length, on cells) (cynomolgus monkey)
T2 construct: also called SVT2-Cyno-FcRH5; cyno FcRH5
T2 chain: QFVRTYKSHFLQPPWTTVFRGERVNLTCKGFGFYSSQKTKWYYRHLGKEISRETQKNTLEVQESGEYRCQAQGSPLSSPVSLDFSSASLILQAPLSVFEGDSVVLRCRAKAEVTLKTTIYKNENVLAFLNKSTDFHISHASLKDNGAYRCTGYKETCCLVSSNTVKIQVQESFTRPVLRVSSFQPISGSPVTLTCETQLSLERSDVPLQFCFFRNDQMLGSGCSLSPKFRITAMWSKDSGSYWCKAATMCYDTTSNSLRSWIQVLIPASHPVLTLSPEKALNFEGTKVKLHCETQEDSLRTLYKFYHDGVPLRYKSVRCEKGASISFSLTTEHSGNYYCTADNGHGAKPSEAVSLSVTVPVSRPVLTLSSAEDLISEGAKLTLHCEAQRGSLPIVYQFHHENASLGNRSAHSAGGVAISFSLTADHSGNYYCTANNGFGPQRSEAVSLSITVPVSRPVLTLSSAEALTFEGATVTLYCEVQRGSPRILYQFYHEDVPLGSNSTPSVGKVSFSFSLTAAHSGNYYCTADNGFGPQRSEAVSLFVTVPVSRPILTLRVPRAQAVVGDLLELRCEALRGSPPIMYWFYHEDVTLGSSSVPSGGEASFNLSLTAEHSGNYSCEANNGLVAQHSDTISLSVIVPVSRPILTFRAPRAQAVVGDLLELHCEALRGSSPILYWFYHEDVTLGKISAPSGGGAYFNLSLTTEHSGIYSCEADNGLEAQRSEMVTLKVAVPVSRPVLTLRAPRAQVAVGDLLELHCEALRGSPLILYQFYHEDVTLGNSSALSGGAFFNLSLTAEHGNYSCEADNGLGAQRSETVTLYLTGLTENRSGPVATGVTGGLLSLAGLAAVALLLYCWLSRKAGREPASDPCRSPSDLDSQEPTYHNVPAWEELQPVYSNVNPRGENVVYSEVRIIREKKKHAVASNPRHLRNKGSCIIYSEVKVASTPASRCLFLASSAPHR

T3: human FcRH3 (full-length, on SVT2 cells) (human, UniProt Q96P31 18-734)
T3 construct: whole, on cells; also called SVT2-FcRH3
T3 sequence (looked up): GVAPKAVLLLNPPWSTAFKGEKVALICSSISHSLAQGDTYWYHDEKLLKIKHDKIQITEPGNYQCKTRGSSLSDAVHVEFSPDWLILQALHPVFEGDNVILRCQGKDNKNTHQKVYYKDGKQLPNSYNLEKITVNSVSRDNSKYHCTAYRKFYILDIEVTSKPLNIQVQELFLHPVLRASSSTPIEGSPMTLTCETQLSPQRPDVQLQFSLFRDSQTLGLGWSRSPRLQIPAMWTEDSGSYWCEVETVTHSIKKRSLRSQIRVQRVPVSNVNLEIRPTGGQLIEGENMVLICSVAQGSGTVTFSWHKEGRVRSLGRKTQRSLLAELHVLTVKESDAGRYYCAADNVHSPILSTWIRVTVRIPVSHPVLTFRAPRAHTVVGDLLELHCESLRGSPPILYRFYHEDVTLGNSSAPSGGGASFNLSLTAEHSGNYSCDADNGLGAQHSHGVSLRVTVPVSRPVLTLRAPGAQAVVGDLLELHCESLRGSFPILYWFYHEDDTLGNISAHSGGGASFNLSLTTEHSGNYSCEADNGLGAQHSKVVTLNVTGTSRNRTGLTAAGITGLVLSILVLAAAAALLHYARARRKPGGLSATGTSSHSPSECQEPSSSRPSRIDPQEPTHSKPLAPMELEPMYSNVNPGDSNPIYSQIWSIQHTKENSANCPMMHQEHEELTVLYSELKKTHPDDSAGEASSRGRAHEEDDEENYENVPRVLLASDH


Key:
[1] = target: T1, human FcRH3 (BIACORE analyte); assay: BIACORE
[2] = target: T2, cynomolgus FcRH5 (full-length, on cells); assay: FACS, SVT2 cells, 3 µg/ml
Procedure: (§1) Human FcRH5, cyno FcRH5, human FcRH1, FcRH2, FcRH3, and FcRH4 transfected mouse SVT2 cells were used to test binding and cross-reactivity of FcRH5 TDBs. The method was carried out as follows. Cultured SVT2 cells were lifted using non-enzyme cell dissociation buffer (Sigma, #C5914). 1×10⁵ cells were suspended in 100 μL and incubated with FcRH5 TDBs at 3 μg/ml. […] Cells were washed twice with FACS buffer before flow cytometry analysis was carried out on a FACSCalibur.

[3] = target: T3, human FcRH3 (full-length, on SVT2 cells); assay: FACS, SVT2 cells, 3 µg/ml
Procedure: as §1

Binder	Kd [1]	binding result [2]	binding result [3]
hu1G7.v1.4/38E4.v1 TDB (bispecific antibody, V domains shown, knob-into-hole TDB; also called 1G7.v1.4 TDB; 1G7.v1.4 (TDB format)) VH 1: EVQLVESGPGLVKPSETLSLTCTVSGFSLTRFGVHWVRQPPGKGLEWLGVIWRGGSTDYNAAFMSRLTISKDNSKNQVSLKLSSVTAADTAVYYCSNHYYGSSDYALDNWGQGTLVTVSS VL 1: DIQMTQSPSSLSASVGDRVTITCKASQDVRNLVVWFQQKPGKAPKLLIYSGSYRYSGVPSRFSGSGSGTDFTLTISSLQPEDFATYYCQQHYSPPYTFGQGTKVEIK VH 2: EVQLVQSGAEVKKPGASVKVSCKASGFTFTSYYIHWVRQAPGQGLEWIGWIYPENDNTKYNEKFKDRVTITADTSTSTAYLELSSLRSEDTAVYYCARDGYSRYYFDYWGQGTLVTVSS VL 2: DIVMTQSPDSLAVSLGERATINCKSSQSLLNSRTRKNYLAWYQQKPGQSPKLLIYWTSTRKSGVPDRFSGSGSGTDFTLTISSLQAEDVAVYYCKQSFILRTFGQGTKVEIK	~80 nM		
hu1G7.v1.13.1/38E4.v1 TDB (bispecific antibody, V domains shown, knob-into-hole TDB; also called 1G7.v1.13.1 TDB) VH 1: EVQLVESGPGLVKPSETLSLTCTVSGFSLTRFGVHWVRQPPGKGLEWLGVIWRGGSTDYNAAFMSRLTISKDNSKNQVSLKLSSVTAADTAVYYCSNHYYGSSDYALDNWGQGTLVTVSS VL 1: DIQMTQSPSSLSASVGDRVTITCKASQDVRNLVVWFQQKPGKAPKLLIYSGYYRYTGVPSRFSGSGSGTDFTLTISSLQPEDFATYYCQQHYQPPYTFGQGTKVEIK VH 2: EVQLVQSGAEVKKPGASVKVSCKASGFTFTSYYIHWVRQAPGQGLEWIGWIYPENDNTKYNEKFKDRVTITADTSTSTAYLELSSLRSEDTAVYYCARDGYSRYYFDYWGQGTLVTVSS VL 2: DIVMTQSPDSLAVSLGERATINCKSSQSLLNSRTRKNYLAWYQQKPGQSPKLLIYWTSTRKSGVPDRFSGSGSGTDFTLTISSLQAEDVAVYYCKQSFILRTFGQGTKVEIK		binds	binds
1G7.v85/38E4.v1 TDB (bispecific antibody, V domains shown, knob-into-hole TDB; also called 1G7.v85 TDB; 1G7.v85 (TDB format)) VH 1: EVQLVESGPGLVKPSETLSLTCTVSGFSLTRFGVHWVRQPPGKGLEWLGVIWRGGSTDYNAAFVSRLTISKDNSKNQVSLKLSSVTAADTAVYYCSNHYYGSSDYALDNWGQGTLVTVSS VL 1: DIQMTQSPSSLSASVGDRVTITCKASQDVRNLVVWFQQKPGKAPKLLIYSGSYRYSGVPSRFSGSGSGTDFTLTISSLQPEDFATYYCQQHYSPPYTFGQGTKVEIK VH 2: EVQLVQSGAEVKKPGASVKVSCKASGFTFTSYYIHWVRQAPGQGLEWIGWIYPENDNTKYNEKFKDRVTITADTSTSTAYLELSSLRSEDTAVYYCARDGYSRYYFDYWGQGTLVTVSS VL 2: DIVMTQSPDSLAVSLGERATINCKSSQSLLNSRTRKNYLAWYQQKPGQSPKLLIYWTSTRKSGVPDRFSGSGSGTDFTLTISSLQAEDVAVYYCKQSFILRTFGQGTKVEIK	~90 nM		

Next, values leading:

Kd [1]	binding result [2]	binding result [3]	Binder
	binds	binds	hu1G7.v1.1/38E4.v1 TDB (bispecific antibody, V domains shown, knob-into-hole TDB; also called 1G7.v1.1 TDB) VH 1: EVQLVESGPGLVKPSETLSLTCTVSGFSLTRFGVHWVRQPPGKGLEWLGVIWRGGSTDYNAAFMSRLTISKDNSKNQVSLKLSSVTAADTAVYYCSNHYYGSSDYALDNWGQGTLVTVSS VL 1: DIQMTQSPSSLSASVGDRVTITCKASQDVRNLVVWFQQKPGKAPKLLIYSGSYRYSGVPSRFSGSGSGTDFTLTISSLQPEDFATYYCQQQYSPPYTFGQGTKVEIK VH 2: EVQLVQSGAEVKKPGASVKVSCKASGFTFTSYYIHWVRQAPGQGLEWIGWIYPENDNTKYNEKFKDRVTITADTSTSTAYLELSSLRSEDTAVYYCARDGYSRYYFDYWGQGTLVTVSS VL 2: DIVMTQSPDSLAVSLGERATINCKSSQSLLNSRTRKNYLAWYQQKPGQSPKLLIYWTSTRKSGVPDRFSGSGSGTDFTLTISSLQAEDVAVYYCKQSFILRTFGQGTKVEIK
	binds	binds	hu1G7.v1.3/38E4.v1 TDB (bispecific antibody, V domains shown, knob-into-hole TDB; also called 1G7.v1.3 TDB) VH 1: EVQLVESGPGLVKPSETLSLTCTVSGFSLTRFGVHWVRQPPGKGLEWLGVIWRGGSTDYNAAFMSRLTISKDNSKNQVSLKLSSVTAADTAVYYCSNHYYGSSDYALDNWGQGTLVTVSS VL 1: DIQMTQSPSSLSASVGDRVTITCKASQDVRNIVVWFQQKPGKAPKLLIYSGSYRYSGVPSRFSGSGSGTDFTLTISSLQPEDFATYYCQQQYSPPYTFGQGTKVEIK VH 2: EVQLVQSGAEVKKPGASVKVSCKASGFTFTSYYIHWVRQAPGQGLEWIGWIYPENDNTKYNEKFKDRVTITADTSTSTAYLELSSLRSEDTAVYYCARDGYSRYYFDYWGQGTLVTVSS VL 2: DIVMTQSPDSLAVSLGERATINCKSSQSLLNSRTRKNYLAWYQQKPGQSPKLLIYWTSTRKSGVPDRFSGSGSGTDFTLTISSLQAEDVAVYYCKQSFILRTFGQGTKVEIK
	binds	binds	hu1G7.v1.13/38E4.v1 TDB (bispecific antibody, V domains shown, knob-into-hole TDB; also called 1G7.v1.13 TDB) VH 1: EVQLVESGPGLVKPSETLSLTCTVSGFSLTRFGVHWVRQPPGKGLEWIGVIWRGGSTDYNAAFMSRLTISKDNSKNQVSLKLSSVTAADTAVYYCSNHYYGSSDYALDNWGQGTLVTVSS VL 1: DIQMTQSPSSLSASVGDRVTITCKASQDVRNLVVWFQQKPGKAPKLLIYSGYYRYTGVPSRFSGSGSGTDFTLTISSLQPEDFATYYCQQHYQPPYTFGQGTKVEIK VH 2: EVQLVQSGAEVKKPGASVKVSCKASGFTFTSYYIHWVRQAPGQGLEWIGWIYPENDNTKYNEKFKDRVTITADTSTSTAYLELSSLRSEDTAVYYCARDGYSRYYFDYWGQGTLVTVSS VL 2: DIVMTQSPDSLAVSLGERATINCKSSQSLLNSRTRKNYLAWYQQKPGQSPKLLIYWTSTRKSGVPDRFSGSGSGTDFTLTISSLQAEDVAVYYCKQSFILRTFGQGTKVEIK
	binds	binds	hu1G7.v1.2/38E4.v1 TDB (bispecific antibody, V domains shown, knob-into-hole TDB; also called 1G7.v1.2 TDB) VH 1: EVQLVESGPGLVKPSETLSLTCTVSGFSLTRFGVHWVRQPPGKGLEWLGVIWRGGSTDYNAAFMSRLTISKDNSKNQVSLKLSSVTAADTAVYYCSNHYYGSSDYALDNWGQGTLVTVSS VL 1: DIQMTQSPSSLSASVGDRVTITCKASQDVRNLVVWFQQKPGKAPKLLIYSGYNRYSGVPSRFSGSGSGTDFTLTISSLQPEDFATYYCQQQFQPPYTFGQGTKVEIK VH 2: EVQLVQSGAEVKKPGASVKVSCKASGFTFTSYYIHWVRQAPGQGLEWIGWIYPENDNTKYNEKFKDRVTITADTSTSTAYLELSSLRSEDTAVYYCARDGYSRYYFDYWGQGTLVTVSS VL 2: DIVMTQSPDSLAVSLGERATINCKSSQSLLNSRTRKNYLAWYQQKPGQSPKLLIYWTSTRKSGVPDRFSGSGSGTDFTLTISSLQAEDVAVYYCKQSFILRTFGQGTKVEIK

Source: patent US20240383984A1 (Genentech, published 2024)
